Test results reported in patent publication US20230051715A1 (MABWELL THERAPEUTICS, published 2023).

T1: human C1s mutant M14 (R316H) (human, UniProt P09871 16-688)
T1 construct: The entry is the mutant itself
T1 sequence: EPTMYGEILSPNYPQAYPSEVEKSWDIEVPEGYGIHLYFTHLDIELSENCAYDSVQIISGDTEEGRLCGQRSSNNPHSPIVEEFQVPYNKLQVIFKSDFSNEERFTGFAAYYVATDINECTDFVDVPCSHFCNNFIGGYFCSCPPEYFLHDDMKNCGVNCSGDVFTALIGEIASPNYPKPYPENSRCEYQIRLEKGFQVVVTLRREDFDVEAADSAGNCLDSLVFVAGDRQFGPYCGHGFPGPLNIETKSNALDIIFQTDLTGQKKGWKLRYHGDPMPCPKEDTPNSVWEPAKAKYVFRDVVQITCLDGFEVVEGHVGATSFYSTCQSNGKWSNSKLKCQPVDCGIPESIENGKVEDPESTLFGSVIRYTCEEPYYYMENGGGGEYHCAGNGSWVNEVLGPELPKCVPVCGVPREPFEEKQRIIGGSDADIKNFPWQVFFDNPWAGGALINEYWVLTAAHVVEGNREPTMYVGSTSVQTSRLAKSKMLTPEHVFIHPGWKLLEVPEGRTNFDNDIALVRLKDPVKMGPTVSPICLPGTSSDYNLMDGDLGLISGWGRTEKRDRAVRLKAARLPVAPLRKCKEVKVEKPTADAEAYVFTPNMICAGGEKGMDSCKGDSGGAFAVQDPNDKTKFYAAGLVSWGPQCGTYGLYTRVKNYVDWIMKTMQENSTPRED

T2: human C1s mutant M2 (M277I & K331Q) (human, UniProt P09871 16-688)
T2 construct: The entry is the mutant itself
T2 sequence: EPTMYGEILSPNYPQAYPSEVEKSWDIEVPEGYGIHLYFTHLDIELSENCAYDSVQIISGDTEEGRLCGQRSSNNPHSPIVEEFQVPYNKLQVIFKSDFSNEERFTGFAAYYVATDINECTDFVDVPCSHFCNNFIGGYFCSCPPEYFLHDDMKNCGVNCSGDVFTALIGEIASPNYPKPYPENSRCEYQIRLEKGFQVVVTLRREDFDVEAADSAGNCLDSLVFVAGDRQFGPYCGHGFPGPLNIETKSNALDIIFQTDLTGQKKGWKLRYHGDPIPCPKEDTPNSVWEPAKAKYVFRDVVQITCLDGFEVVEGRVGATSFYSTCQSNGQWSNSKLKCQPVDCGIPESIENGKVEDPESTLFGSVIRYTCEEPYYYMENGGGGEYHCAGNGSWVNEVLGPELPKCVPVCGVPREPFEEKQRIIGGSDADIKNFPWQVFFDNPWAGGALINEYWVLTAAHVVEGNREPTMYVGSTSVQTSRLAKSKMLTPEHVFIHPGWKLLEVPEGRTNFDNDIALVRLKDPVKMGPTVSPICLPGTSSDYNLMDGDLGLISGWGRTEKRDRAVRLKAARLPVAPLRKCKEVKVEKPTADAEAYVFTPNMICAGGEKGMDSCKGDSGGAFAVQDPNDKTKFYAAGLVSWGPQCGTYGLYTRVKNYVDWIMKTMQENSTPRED

T3: human C1s mutant M13 (A292D) (human, UniProt P09871 16-688)
T3 construct: The entry is the mutant itself
T3 sequence: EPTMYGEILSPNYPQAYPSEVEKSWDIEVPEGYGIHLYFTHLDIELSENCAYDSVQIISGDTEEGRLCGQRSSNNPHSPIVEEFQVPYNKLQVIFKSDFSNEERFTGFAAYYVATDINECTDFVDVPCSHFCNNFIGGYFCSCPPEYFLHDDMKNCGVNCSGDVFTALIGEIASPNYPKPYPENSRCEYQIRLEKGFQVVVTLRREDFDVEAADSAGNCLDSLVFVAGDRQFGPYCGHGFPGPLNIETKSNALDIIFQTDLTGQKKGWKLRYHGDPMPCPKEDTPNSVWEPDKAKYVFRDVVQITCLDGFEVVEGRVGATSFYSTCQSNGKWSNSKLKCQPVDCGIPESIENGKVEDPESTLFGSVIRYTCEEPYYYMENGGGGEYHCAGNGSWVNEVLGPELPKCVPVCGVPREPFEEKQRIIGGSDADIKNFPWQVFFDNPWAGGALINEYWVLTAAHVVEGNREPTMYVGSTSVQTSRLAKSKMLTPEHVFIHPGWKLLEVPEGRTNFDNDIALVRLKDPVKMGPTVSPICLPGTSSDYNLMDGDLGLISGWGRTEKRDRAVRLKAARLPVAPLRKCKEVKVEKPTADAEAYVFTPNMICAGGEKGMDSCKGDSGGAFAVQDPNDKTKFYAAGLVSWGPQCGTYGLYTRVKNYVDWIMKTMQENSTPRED


Experiments:
[1] = target: T1, human C1s mutant M14 (R316H); assay: ELISA, plate coated with human C1s mutant M14: R316H, OD450nm
Procedure: (§1) ELISA was carried out by first coating 96-well plates with 200 ng/well of full-length or truncated C1s proteins overnight. The next morning, plates were blocked with SuperBlock T20 blocking buffer (Thermo Scientific 37536) for 1 h with gentle shaking. Then, various concentrations of anti-C1s antibodies diluted in SuperBlock T20 blocking buffer were added to the plates and incubated for 1 h with gentle shaking. Mouse IgG (Sigma-Aldrich 15381) and human IgG1 (BioXCell BP0297) were used as negative controls. The plates were washed before incubating with HRP conjugated secondary antibodies diluted in SuperBlock T20 blocking buffer (goat anti-mouse IgG (H+L) cross-adsorbed secondary antibody HRP (Invitrogen G-21040) or goat anti-human IgG antibody, HRP conjugate (Millipore AP309P)) for 1 h with gentle shaking. At last, the plates were washed and color developed with ELISA liquid HRP substrate (Sigma-Aldrich), followed by stopping the reaction with addition of 1M H₂SO₄ in the same volume as the ELISA liquid substrate. Bound antibody was measured by absorbance at OD₄₅₀ₙₘ.
(§2) Binding of anti-C1s antibodies to mutants M1-M20 of human C1s was measured by ELISA as described in Example 4, and results are shown in FIGS. 6B-6U. All anti-C1s humanized variants including hz2-7(H1L2), hz2-8(H1L2 G80A) and hz2-8(H1L2 G80A/T82A) maintained strong binding properties to the majority (16 out of 20) of C1s mutants including M1 (FIG. 6B), M2 (FIG. 6C), M3 (FIG. 6D). M4 (FIG. 6E), M7 (FIG. 6H), M8 (FIG. 6I), M10 (FIG. 6K), M11 (FIG. 6L), M12 (FIG. 6M), M13 (FIG. 6N), M15 (FIG. 6P), M16 (FIG. 6Q), M17 (FIG. 6R), M18 (FIG. 6S), M19 (FIG. 6T) and M20 (FIG. 6U).

[2] = target: T2, human C1s mutant M2 (M277I & K331Q); assay: ELISA, plate coated with human C1s mutant M2: M277I, K331Q, OD450nm
Procedure: as §1, §2

[3] = target: T3, human C1s mutant M13 (A292D); assay: ELISA, plate coated with human C1s mutant M13: A292D, OD450nm
Procedure: as §1, §2

EC50 [1] [ng/mL] | EC50 [2] [ng/mL] | EC50 [3] [ng/mL] | binding result [1] | Binder
5 | 7 | 6 |  | Anti-C1s antibody hz2-8 (H1L2 G80A) (antibody, V domains shown, Humanized variant with G80A in HC CDR2 (already in the entry), human IgG1 / kappa) VH: QVQLVQSGAEVKKPGASVKVSCKASGFNIKEYYMHWVRQAPEQGLEWMGWIDPENADTIYAQKFQGRVTITADTSTNTAYMELSSLRSEDTAVYYCARSRLFFAYWGQGTLVTVSS VL: DIQMTQSPKSLSASVGDRVTITCRASQDVRTALDWYQQKPGQSPKLLIYSASYRYSGVPSRFSGSGSGTDFTLTISSLQPEDFATYYCQQQYTTPYTFGQGTKLEIKR
8 | 6 | 9 |  | Anti-C1s antibody hz2-8 (H1L2 G80A/T82A) (antibody, V domains shown, Humanized variant with G80A and T82A in HC CDR2 (already in the entry), human IgG1 / kappa) VH: QVQLVQSGAEVKKPGASVKVSCKASGFNIKEYYMHWVRQAPEQGLEWMGWIDPENADAIYAQKFQGRVTITADTSTNTAYMELSSLRSEDTAVYYCARSRLFFAYWGQGTLVTVSS VL: DIQMTQSPKSLSASVGDRVTITCRASQDVRTALDWYQQKPGQSPKLLIYSASYRYSGVPSRFSGSGSGTDFTLTISSLQPEDFATYYCQQQYTTPYTFGQGTKLEIKR
 | 9 | 5 | no binding (tested: 1000 ng/ml (Log 3)) | Anti-C1s antibody hz2-7(H1L2) (antibody, V domains shown, Humanized, human IgG1 / kappa; also called hz2-7(1L2)) VH: EVQLLESGGGLVQPGGSLRLSCAASGFTFSNYFMNWVRQAPGKGLEWVSEIRLKFTNYATHYADSVKGRFTISRDDSKSTLYLQMNSLRAEDTAVYYCTRDYGSRNGYFDYWGQGTLVTVSS VL: DIVMTQTPLSLPVTPGEPASISCRSSKSLLHSNGNTFLYWFLQKPGQSPQLLIYRMSNLASGVPDRFSGSGSGTDFTLKISRVEAEDVGVYYCMQHLEYPYTFGGGTKLEIKR
